In article PMC6555819, “Comprehensive study of nuclear receptor DNA binding provides a revised framework for understanding receptor specificity”:

B1: NRC3_wobSeed88_DR3_o1 (dsDNA)
DNA 1: GCTAGCCTAGGTCATGCGGGCCAGTATAGTGTCGGCGCGATTGACAGCGTAGAATGAAGG
DNA 2: CCTTCATTCTACGCTGTCAATCGCGCCGACACTATACTGGCCCGCATGACCTAGGCTAGC
B2: NRC3_random_hg19_79_o1 (dsDNA)
DNA 1: GCCAGTGTCCTCCTGAGAATTGGTTGTGTTGGGCAGGCGATTGACAGCGTAGAATGAAGG
DNA 2: CCTTCATTCTACGCTGTCAATCGCCTGCCCAACACAACCAATTCTCAGGAGGACACTGGC
B3: NRC3_random_hg19_226_o1 (dsDNA)
DNA 1: GCCATCCCATTTCTCTTCCCAAGGGATTTGAAAGAGGCGATTGACAGCGTAGAATGAAGG
DNA 2: CCTTCATTCTACGCTGTCAATCGCCTCTTTCAAATCCCTTGGGAAGAGAAATGGGATGGC
B4: NRC3_random_hg19_365_o1 (dsDNA)
DNA 1: GCAGTAGACACAGGGTTTCACCGTGTTGGCCAGGATGCGATTGACAGCGTAGAATGAAGG
DNA 2: CCTTCATTCTACGCTGTCAATCGCATCCTGGCCAACACGGTGAAACCCTGTGTCTACTGC
B5: NRC3_random_hg19_376_o1 (dsDNA)
DNA 1: GCTTCCTCTTCCTCTGTGCCTGTGTAGCCTCCATCCGCGATTGACAGCGTAGAATGAAGG
DNA 2: CCTTCATTCTACGCTGTCAATCGCGGATGGAGGCTACACAGGCACAGAGGAAGAGGAAGC
B6: NRC3_random_hg19_21_o1 (dsDNA)
DNA 1: GCAACATTTCAGTATACTTTCTAGCAACTCTGGGTAGCGATTGACAGCGTAGAATGAAGG
DNA 2: CCTTCATTCTACGCTGTCAATCGCTACCCAGAGTTGCTAGAAAGTATACTGAAATGTTGC
B7: NRC3_random_hg19_34_o1 (dsDNA)
DNA 1: GCATGATGCCTCCTTGGAGAAGTCCTGCATTCATCCGCGATTGACAGCGTAGAATGAAGG
DNA 2: CCTTCATTCTACGCTGTCAATCGCGGATGAATGCAGGACTTCTCCAAGGAGGCATCATGC
B8: NRC3_wobSeed13_DR0_A8G_o1 (dsDNA)
DNA 1: GCCGTCCGAGGTCAAGGTCAGTGAAAGAGACTCGAAGCGATTGACAGCGTAGAATGAAGG
DNA 2: CCTTCATTCTACGCTGTCAATCGCTTCGAGTCTCTTTCACTGACCTTGACCTCGGACGGC
B9: NRC3_wobSeed109_DR4_T15C_o1 (dsDNA)
DNA 1: GCCGTCCAAGGTCACAGGAGGTCAGTGAAGACAGATGCGATTGACAGCGTAGAATGAAGG
DNA 2: CCTTCATTCTACGCTGTCAATCGCATCTGTCTTCACTGACCTCCTGTGACCTTGGACGGC
B10: NRC3_random_hg19_248_o1 (dsDNA)
DNA 1: GCGTGTTCTACTGTACTGCAGCTGAGCCGACACTCAGCGATTGACAGCGTAGAATGAAGG
DNA 2: CCTTCATTCTACGCTGTCAATCGCTGAGTGTCGGCTCAGCTGCAGTACAGTAGAACACGC
B11: NRC3_wobSeed63_DR2_T8G_o1 (dsDNA)
DNA 1: GCCGAACGAGGTCACCAGGACAGTGAAGAGGTTGGAGCGATTGACAGCGTAGAATGAAGG
DNA 2: CCTTCATTCTACGCTGTCAATCGCTCCAACCTCTTCACTGTCCTGGTGACCTCGTTCGGC
B12: NRC3_random_hg19_63_o1 (dsDNA)
DNA 1: GCTTTCAAGGCAGTAAGAGTTTGCTGTGCATCAGCTGCGATTGACAGCGTAGAATGAAGG
DNA 2: CCTTCATTCTACGCTGTCAATCGCAGCTGATGCACAGCAAACTCTTACTGCCTTGAAAGC
B13: NRC3_random_hg19_114_o1 (dsDNA)
DNA 1: GCCAAGGCAGCCAGAACTGATGATTGCACTGTGTGGGCGATTGACAGCGTAGAATGAAGG
DNA 2: CCTTCATTCTACGCTGTCAATCGCCCACACAGTGCAATCATCAGTTCTGGCTGCCTTGGC
B14: NRC3_random_hg19_498_o1 (dsDNA)
DNA 1: GCGACCACAGGTATAGTGTGCTGGACTATGTTCCAGGCGATTGACAGCGTAGAATGAAGG
DNA 2: CCTTCATTCTACGCTGTCAATCGCCTGGAACATAGTCCAGCACACTATACCTGTGGTCGC
B15: NRC3_random_hg19_160_o1 (dsDNA)
DNA 1: GCATCCCTGCAATGGCCTGCAAAGTTACAGGTTGCAGCGATTGACAGCGTAGAATGAAGG
DNA 2: CCTTCATTCTACGCTGTCAATCGCTGCAACCTGTAACTTTGCAGGCCATTGCAGGGATGC
B16: NRC3_random_hg19_95_o1 (dsDNA)
DNA 1: GCATCTTCAGTATGTTTCATTCAGTAGCTCAGTGGCGCGATTGACAGCGTAGAATGAAGG
DNA 2: CCTTCATTCTACGCTGTCAATCGCGCCACTGAGCTACTGAATGAAACATACTGAAGATGC
B17: NRC3_wobSeed53_DR2_C8A_o1 (dsDNA)
DNA 1: GCCCTTAAGGGTCACGAGGTTATAGCACGACGAGCGGCGATTGACAGCGTAGAATGAAGG
DNA 2: CCTTCATTCTACGCTGTCAATCGCCGCTCGTCGTGCTATAACCTCGTGACCCTTAAGGGC
B18: NRC3_wobSeed97_DR4_T8C_o1 (dsDNA)
DNA 1: GCCAAACCAGGTCACGAAAGGTCAAAGTCGAATGACGCGATTGACAGCGTAGAATGAAGG
DNA 2: CCTTCATTCTACGCTGTCAATCGCGTCATTCGACTTTGACCTTTCGTGACCTGGTTTGGC
B19: NRC3_random_hg19_443_o1 (dsDNA)
DNA 1: GCTAGTACTTGGTCCATAGCACTACTACTCACTTTGGCGATTGACAGCGTAGAATGAAGG
DNA 2: CCTTCATTCTACGCTGTCAATCGCCAAAGTGAGTAGTAGTGCTATGGACCAAGTACTAGC
B20: NRC3_random_hg19_89_o1 (dsDNA)
DNA 1: GCCAAGATGAATCAGAAGCATGCCATCCGAATTCCAGCGATTGACAGCGTAGAATGAAGG
DNA 2: CCTTCATTCTACGCTGTCAATCGCTGGAATTCGGATGGCATGCTTCTGATTCATCTTGGC
B21: NRC3_wobSeed27_DR1_G22C_o1 (dsDNA)
DNA 1: GCACTCGGAGGACAAAGGTCACAGCTACGCCAGTGAGCGATTGACAGCGTAGAATGAAGG
DNA 2: CCTTCATTCTACGCTGTCAATCGCTCACTGGCGTAGCTGTGACCTTTGTCCTCCGAGTGC
B22: NRC3_wobSeed61_DR2_G10C_o1 (dsDNA)
DNA 1: GCCGTCCAACGTCAGCAGGTCAGTGAAAGCGACGTGGCGATTGACAGCGTAGAATGAAGG
DNA 2: CCTTCATTCTACGCTGTCAATCGCCACGTCGCTTTCACTGACCTGCTGACGTTGGACGGC
B23: NRC3_random_hg19_236_o1 (dsDNA)
DNA 1: GCGCCTAGCACTTGTGTTGACCATTCATTCAGTGCTGCGATTGACAGCGTAGAATGAAGG
DNA 2: CCTTCATTCTACGCTGTCAATCGCAGCACTGAATGAATGGTCAACACAAGTGCTAGGCGC
B24: NRC3_random_hg19_375_o1 (dsDNA)
DNA 1: GCCAGAAGAGGAGAAGACACATAAGAAGAGGAAGTCGCGATTGACAGCGTAGAATGAAGG
DNA 2: CCTTCATTCTACGCTGTCAATCGCGACTTCCTCTTCTTATGTGTCTTCTCCTCTTCTGGC
B25: NRC3_random_hg19_45_o1 (dsDNA)
DNA 1: GCAAACACAAAGTTTGGGCTGCCTTCTCTAGAGATTGCGATTGACAGCGTAGAATGAAGG
DNA 2: CCTTCATTCTACGCTGTCAATCGCAATCTCTAGAGAAGGCAGCCCAAACTTTGTGTTTGC
B26: NRC3_random_hg19_366_o1 (dsDNA)
DNA 1: GCACTACTACTGCTGTTGAGAAACCTGCATTGTGGCGCGATTGACAGCGTAGAATGAAGG
DNA 2: CCTTCATTCTACGCTGTCAATCGCGCCACAATGCAGGTTTCTCAACAGCAGTAGTAGTGC

target: RXRa (Homo sapiens, UniProt P19793); assay: no ligand; PBM; 180 nM; PBS pH 7.4, 2% milk, 0.02% Triton X-100, 1 mM DTT, BSA, 0.4 mg/ml salmon testes DNA; conditions: tags: His cleaved; chain copies: 2; label: surface-attached array probe
Sequence (P19793 whole entry): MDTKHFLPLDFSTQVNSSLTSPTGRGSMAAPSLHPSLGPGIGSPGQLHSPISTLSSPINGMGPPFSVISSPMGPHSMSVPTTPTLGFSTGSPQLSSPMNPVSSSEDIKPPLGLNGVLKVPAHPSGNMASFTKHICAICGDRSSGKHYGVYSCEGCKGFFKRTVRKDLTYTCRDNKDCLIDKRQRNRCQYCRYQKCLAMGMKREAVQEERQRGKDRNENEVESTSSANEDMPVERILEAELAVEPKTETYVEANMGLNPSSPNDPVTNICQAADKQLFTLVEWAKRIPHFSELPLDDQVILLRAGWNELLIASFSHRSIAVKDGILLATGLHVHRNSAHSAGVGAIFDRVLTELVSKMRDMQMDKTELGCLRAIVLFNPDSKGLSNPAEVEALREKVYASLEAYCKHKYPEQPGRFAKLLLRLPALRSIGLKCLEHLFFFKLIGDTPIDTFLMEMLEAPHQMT

Compared with B1, B2 is lower in binding signal: 3.04 PBM z-score against 500 random probes for the first, -0.79 PBM z-score against 500 random probes for the second.

First: B3
Second: B4
The binding signal of the first is lower: -0.08 PBM z-score against 500 random probes for the first, 0.03 PBM z-score against 500 random probes for the second.

Compared with B5, B6 is higher in binding signal: -0.77 PBM z-score against 500 random probes for the first, 0.34 PBM z-score against 500 random probes for the second.

Going from B7 to B8, the binding signal rises from -0.46 PBM z-score against 500 random probes to 8 PBM z-score against 500 random probes.

Compared with B9, B10 is lower in binding signal: 7.9 PBM z-score against 500 random probes for the first, -0.43 PBM z-score against 500 random probes for the second.

Going from B11 to B12, the binding signal falls from 7.78 PBM z-score against 500 random probes to -1.05 PBM z-score against 500 random probes.

Going from B13 to B14, the binding signal falls from -0.24 PBM z-score against 500 random probes to -0.31 PBM z-score against 500 random probes.

Going from B15 to B16, the binding signal rises from -0.41 PBM z-score against 500 random probes to -0.26 PBM z-score against 500 random probes.

First: B17
Second: B18
The binding signal of the first is lower: 8.38 PBM z-score against 500 random probes for the first, 9.26 PBM z-score against 500 random probes for the second.

Compared with B19, B20 is lower in binding signal: 0.04 PBM z-score against 500 random probes for the first, -0 PBM z-score against 500 random probes for the second.

First: B21
Second: B22
The binding signal of the first is higher: 8.07 PBM z-score against 500 random probes for the first, 0.42 PBM z-score against 500 random probes for the second.

Going from B23 to B24, the binding signal rises from -0.35 PBM z-score against 500 random probes to 0.13 PBM z-score against 500 random probes.

Compared with B25, B26 is lower in binding signal: -0.51 PBM z-score against 500 random probes for the first, -0.56 PBM z-score against 500 random probes for the second.

target: RARg:RXRa (Homo sapiens, UniProt P13631;P19793 full;full); assay: no ligand; PBM; 270 nM : 90 nM RXRa; PBS pH 7.4, 2% milk, 0.02% Triton X-100, 1 mM DTT, BSA, 0.4 mg/ml salmon testes DNA; conditions: tags: His kept;His cleaved; copies: 1;1; label: surface-attached array probe
Sequence (P13631 whole entry, chain 1 of 2): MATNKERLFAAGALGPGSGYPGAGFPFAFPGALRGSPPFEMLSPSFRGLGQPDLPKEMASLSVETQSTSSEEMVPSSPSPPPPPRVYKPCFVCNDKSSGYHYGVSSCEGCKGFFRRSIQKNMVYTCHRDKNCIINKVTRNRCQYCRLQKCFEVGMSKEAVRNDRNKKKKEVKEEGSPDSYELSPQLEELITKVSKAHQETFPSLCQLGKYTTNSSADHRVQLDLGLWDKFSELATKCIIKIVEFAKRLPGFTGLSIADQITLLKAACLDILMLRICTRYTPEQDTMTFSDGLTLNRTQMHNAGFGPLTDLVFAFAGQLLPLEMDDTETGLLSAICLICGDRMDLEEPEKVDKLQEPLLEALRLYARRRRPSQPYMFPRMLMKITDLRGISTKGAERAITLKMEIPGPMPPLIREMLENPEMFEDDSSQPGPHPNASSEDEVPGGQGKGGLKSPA
Sequence (P19793 whole entry, chain 2 of 2): as the sequence (P19793 whole entry) above
Outline: (§1)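 Scanned fluorescence from custom Agilent 4×180K protein-binding microarrays was regression-normalized. Binding z-scores use random background probes as reference. Ligand-free nuclear receptor dimers were incubated on the arrays for 1 h and detected with antibodies against each partner (one per run).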

Compared with B3, B8 is higher in binding signal: -0.16 PBM z-score against 500 random probes for the first, 7.45 PBM z-score against 500 random probes for the second.

Compared with B9, B10 is lower in binding signal: 7.39 PBM z-score against 500 random probes for the first, -0.34 PBM z-score against 500 random probes for the second.

Going from B17 to B18, the binding signal rises from 7.41 PBM z-score against 500 random probes to 8.22 PBM z-score against 500 random probes.

For B21, the binding signal was 7.47 PBM z-score against 500 random probes.

target: RARb:RXRa (Homo sapiens, UniProt P10826;P19793 full;full); assay: as above; conditions: tags: His kept;His cleaved; copies: 1;1; label: surface-attached array probe
Sequence (P10826 whole entry, chain 1 of 2): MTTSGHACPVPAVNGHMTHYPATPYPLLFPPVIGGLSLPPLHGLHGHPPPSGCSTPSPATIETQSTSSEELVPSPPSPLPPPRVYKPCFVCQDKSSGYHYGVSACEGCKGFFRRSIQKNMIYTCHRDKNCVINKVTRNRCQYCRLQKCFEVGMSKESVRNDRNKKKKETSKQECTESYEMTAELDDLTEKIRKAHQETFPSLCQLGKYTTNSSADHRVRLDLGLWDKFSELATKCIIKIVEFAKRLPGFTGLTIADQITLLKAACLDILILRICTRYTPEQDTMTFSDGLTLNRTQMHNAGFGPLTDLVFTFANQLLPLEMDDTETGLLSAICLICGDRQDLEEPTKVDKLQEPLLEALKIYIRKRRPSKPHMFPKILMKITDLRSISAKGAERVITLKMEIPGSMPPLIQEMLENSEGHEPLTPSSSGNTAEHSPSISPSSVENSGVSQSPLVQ
Sequence (P19793 whole entry, chain 2 of 2): as the sequence (P19793 whole entry) above
Outline: as §1

Compared with B9, B11 is lower in binding signal: 5.7 PBM z-score against 500 random probes for the first, 5.63 PBM z-score against 500 random probes for the second.

First: B12
Second: B13
The binding signal of the first is higher: -0.61 PBM z-score against 500 random probes for the first, -1.11 PBM z-score against 500 random probes for the second.

First: B17
Second: B19
The binding signal of the first is higher: 6 PBM z-score against 500 random probes for the first, -0.05 PBM z-score against 500 random probes for the second.

B25 was tested, and the binding signal was -0.19 PBM z-score against 500 random probes.

target: FXR:RXRa (Homo sapiens, UniProt Q96RI1;P19793 full;full); assay: as above; conditions: tags: His kept;His cleaved; copies: 1;1; label: surface-attached array probe
Sequence (Q96RI1 whole entry, chain 1 of 2): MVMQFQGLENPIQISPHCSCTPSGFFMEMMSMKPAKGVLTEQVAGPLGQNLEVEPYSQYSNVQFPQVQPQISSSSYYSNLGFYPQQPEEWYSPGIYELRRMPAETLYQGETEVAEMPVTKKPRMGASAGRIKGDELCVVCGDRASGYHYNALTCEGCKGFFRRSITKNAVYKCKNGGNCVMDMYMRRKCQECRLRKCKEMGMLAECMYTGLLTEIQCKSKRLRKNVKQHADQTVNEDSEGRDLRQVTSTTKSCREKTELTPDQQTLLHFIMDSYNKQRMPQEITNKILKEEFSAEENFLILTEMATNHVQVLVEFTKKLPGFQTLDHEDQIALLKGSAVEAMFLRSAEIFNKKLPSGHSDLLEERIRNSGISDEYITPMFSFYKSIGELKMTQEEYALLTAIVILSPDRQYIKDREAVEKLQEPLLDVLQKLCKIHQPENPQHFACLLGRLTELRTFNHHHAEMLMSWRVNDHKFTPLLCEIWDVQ
Sequence (P19793 whole entry, chain 2 of 2): as the sequence (P19793 whole entry) above
Outline: as §1

First: B8
Second: B11
The binding signal of the first is higher: 8.4 PBM z-score against 500 random probes for the first, 7.97 PBM z-score against 500 random probes for the second.

Compared with B17, B24 is lower in binding signal: 8.42 PBM z-score against 500 random probes for the first, 0.5 PBM z-score against 500 random probes for the second.

target: PPARa:RXRa (Homo sapiens, UniProt Q07869;P19793 full;full); assay: as above; conditions: tags: GST kept;His cleaved; copies: 1;1; label: surface-attached array probe
Sequence (Q07869 whole entry, chain 1 of 2): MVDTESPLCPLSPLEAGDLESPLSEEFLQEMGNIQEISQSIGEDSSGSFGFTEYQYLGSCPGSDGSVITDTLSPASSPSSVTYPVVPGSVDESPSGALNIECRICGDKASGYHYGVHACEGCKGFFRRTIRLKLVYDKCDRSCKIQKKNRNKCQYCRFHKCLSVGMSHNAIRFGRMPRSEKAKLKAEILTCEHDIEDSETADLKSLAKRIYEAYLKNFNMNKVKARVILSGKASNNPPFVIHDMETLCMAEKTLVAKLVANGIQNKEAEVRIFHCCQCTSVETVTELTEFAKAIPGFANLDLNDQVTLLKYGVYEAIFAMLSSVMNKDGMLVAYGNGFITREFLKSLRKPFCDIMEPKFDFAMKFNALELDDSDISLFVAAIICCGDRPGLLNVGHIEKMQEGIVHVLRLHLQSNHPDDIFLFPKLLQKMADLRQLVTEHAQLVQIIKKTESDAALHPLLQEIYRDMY
Sequence (P19793 whole entry, chain 2 of 2): as the sequence (P19793 whole entry) above
Outline: as §1

First: B1
Second: B6
The binding signal of the first is higher: 3.33 PBM z-score against 500 random probes for the first, 0.2 PBM z-score against 500 random probes for the second.

First: B8
Second: B11
The binding signal of the first is lower: 6.49 PBM z-score against 500 random probes for the first, 6.82 PBM z-score against 500 random probes for the second.

Compared with B16, B17 is higher in binding signal: -0.24 PBM z-score against 500 random probes for the first, 7.03 PBM z-score against 500 random probes for the second.

First: B19
Second: B22
The binding signal of the first is lower: -0.32 PBM z-score against 500 random probes for the first, 0.49 PBM z-score against 500 random probes for the second.
